The values below come from US20040048327.

The test system of one series is T1, Ac-AHph-trans-EP-COOEt.
T1 sequence: X

For series [1], the system named is T2, Ac-Leu-AHph-trans-EP-COOEt.
T2 sequence: LX

For series [2], the system named is T3, Ac-Leu-ALeu-trans-EP-COOEt.
T3 sequence: LL

The next series relates to T4, Cbz-AHph-trans-EP-COOEt.
T4 sequence: X

In a further series the test system is T5, Cbz-ALeu-trans-EP-COOEt.
T5 sequence: L

Series [3] deals with T6, Cbz-Leu-AAbu-trans-EP-COOEt.
T6 sequence: LX

Series [4] has as its system T7, Cbz-Leu-AAbu-trans-EP-COOH.
T7 sequence: LX

Series [5] has as its system T8, Cbz-Leu-AHph-(2R, 3R)-EP-COOEt.
T8 sequence: LX

Series [6] has as its system T9, Cbz-Leu-AHph-(2S, 3S)-EP-COOEt.
T9 sequence: LX

In series [7] the test system is T10, Cbz-Leu-AHph-(2S, 3S)-EP-COOH.
T10 sequence: LX

The test system of series [8] is T11, Cbz-Leu-AHph-cis-EP-COOEt.
T11 sequence: LX

The test system of series [9] is T12, Cbz-Leu-ALeu-(2R, 3R)-EP-COOEt.
T12 sequence: LL

Series [10] has as its system T13, Cbz-Leu-ALeu-(2S, 3S)-EP-COOEt.
T13 sequence: LL

For series [11], the system named is T14, Cbz-Leu-ALeu-cis-EP-COOEt.
T14 sequence: LL

The test system of series [12] is T15, Cbz-Leu-ALeu-trans-EP-COOEt.
T15 sequence: LL

Series [13] relates to T16, Cbz-Leu-Leu-ALeu-(2R, 3R)-EP-COOEt.
T16 sequence: LLL

Series [14] has as its system T17, Cbz-Leu-Leu-ALeu-(2S, 3S)-EP-COOEt.
T17 sequence: LLL

The subject of series [15] is T18, Cbz-Leu-Leu-ALeu-(2S, 3S)-EP-COOH.
T18 sequence: LLL

In series [16] the test system is T19, Cbz-Leu-Leu-ALeu-trans-EP-COOEt.
T19 sequence: LLL

Series [17] relates to T20, Boc-Abu-AHph-trans-EP-CH2CH2Ph.
T20 sequence: XX

Series [18] has as its system T21, Boc-Nle-AHph-trans-EP-CH2CH2Ph.
T21 sequence: XX

For series [19], the system named is T22, Boc-Nle-AHph-trans-EP-COOEt.
T22 sequence: XX

Series [20] has as its system T23, Boc-Np2-ALeu-trans-EP-COOEt.
T23 sequence: XL

Series [21] relates to T24, Boc-Nva-AHph-trans-EP-COOEt.
T24 sequence: XX

In the next series the test system is T25, Cbz-APhe-trans-EP-COOEt.
T25 sequence: F

Series [22] deals with T26, Cbz-Ala-Ala-AAsn-(2R, 3R)-EP-COOEt.
T26 sequence: AAN

Series [23] relates to T27, Cbz-Ala-Ala-AAsn-(2S, 3S)-EP-COOEt.
T27 sequence: AAN

The test system of series [24] is T28, Cbz-Ala-Ala-AAsn-cis-EP-COOEt.
T28 sequence: AAN

Series [25] deals with T29, Cbz-Ala-Ala-AAsn-trans-EP-COOCH2Ph.
T29 sequence: AAN

Series [26] has as its system T30, Cbz-Ala-Ala-AAsn-trans-EP-COOEt.
T30 sequence: AAN

In series [27] the test system is T31, Cbz-Ala-Ala-NHN(CH2COOEt)-trans-EP-COOEt.
T31 sequence: AAD

The subject of series [28] is T32, Cbz-Asp-Glu-Val-AAsp-(2R, 3R)-EP-COOEt.
T32 sequence: DEVD

Series [29] deals with T33, Cbz-Asp-Glu-Val-AAsp-(2S, 3S)-EP-COOEt.
T33 sequence: DEVD

Series [30] relates to T34, Cbz-Ile-Glu-Thr-AAsp-(2S, 3S)-EP-COOEt.
T34 sequence: IETD

For series [31], the system named is T35, Cbz-Leu-Glu-Thr-AAsp-(2R, 3R)-EP-COOEt.
T35 sequence: LETD

The test system of series [32] is T36, Cbz-Leu-Glu-Thr-AAsp-(2S, 3S)-EP-COOEt.
T36 sequence: LETD

Series [33] deals with T37, Cbz-Leu-Phe-AGln-(2R, 3R)-EP-COOEt.
T37 sequence: LFQ

Series [34] has as its system T38, Cbz-Leu-Phe-AGln-(2S, 3S)-EP-COOEt.
T38 sequence: LFQ

In series [35] the test system is T39, Cbz-Leu-Phe-AGln-trans-EP-COOEt.
T39 sequence: LFQ

For series [36], the system named is T40, Cbz-Phe-ALeu-trans-EP-CH2CH2Ph.
T40 sequence: FL

Series [37] relates to T41, Cbz-Phe-ALeu-trans-EP-COOEt.
T41 sequence: FL

The test system of series [38] is T42, Cbz-Phe-APhe-trans-EP-CH2CH2Ph.
T42 sequence: FF

Series [39] relates to T43, PhPr-Val-Ala-AAsp-(2R, 3R)-EP-COOCH2Ph.
T43 sequence: VAD

In series [40] the test system is T44, PhPr-Val-Ala-AAsp-(2S, 3S)-EP-COOCH2Ph.
T44 sequence: VAD

The subject of series [41] is T45, PhPr-Val-Ala-AAsp-trans-EP-CH2CH2Ph.
T45 sequence: VAD

For series [42], the system named is T46, PhPr-Val-Ala-AAsp-trans-EP-COOCH2Ph.
T46 sequence: VAD

For series [43], the system named is T47, Suc-Np2-ALeu-trans-EP-COOEt.
T47 sequence: XL

The subject of series [44] is T48, Nle-AHph-trans-EP-COOEt.TFA.
T48 sequence: XX

In series [45] the test system is T49, Nva-AHph-trans-EP-CH2CH2Ph.TFA.
T49 sequence: XX

The test system of series [46] is T50, Nva-AHph-trans-EP-COOEt.TFA.
T50 sequence: XX

As for calpain, the kobs/[I] in the series on Ac-AHph-trans-EP-COOEt was 1.29 M⁻¹ s⁻¹; in series [1] it was 0.84 M⁻¹ s⁻¹; in [2] it was 1.48 M⁻¹ s⁻¹; in the series on Cbz-AHph-trans-EP-COOEt, 2.44 M⁻¹ s⁻¹; in the series with Cbz-ALeu-trans-EP-COOEt it was 1.75 M⁻¹ s⁻¹; in [3], 1.98 M⁻¹ s⁻¹. Further, the kobs/[I] came out at 0.57 M⁻¹ s⁻¹ in series [4]; 2.12 M⁻¹ s⁻¹ in series [5]; 2.28 M⁻¹ s⁻¹ in [6]; 2.12 M⁻¹ s⁻¹ in series [7]; 1.09 M⁻¹ s⁻¹ in series [8]; 1.45 M⁻¹ s⁻¹ in [9]. The kobs/[I] in series [10] is 8.58 M⁻¹ s⁻¹; in series [11], 1.88 M⁻¹ s⁻¹; in [12] it was 3.09 M⁻¹ s⁻¹; in series [13], “NI”; in series [14], 2.48 M⁻¹ s⁻¹; in series [15], 0.82 M⁻¹ s⁻¹. The kobs/[I] in series [16] is 2.65 M⁻¹ s⁻¹.

Take cathepsin B: the kobs/[I] in the series with Ac-AHph-trans-EP-COOEt is 40.6 M⁻¹ s⁻¹; in series [1] it was 0.59 M⁻¹ s⁻¹; in series [2], 8 M⁻¹ s⁻¹; in [17] it was “NI”; in series [18], “NI”; in series [19] it was 1.3 M⁻¹ s⁻¹. Further, the kobs/[I] in series [20] is 0.39 M⁻¹ s⁻¹; in [21], 2.7 M⁻¹ s⁻¹; with Cbz-AHph-trans-EP-COOEt it was 8.91 M⁻¹ s⁻¹; in the series on Cbz-ALeu-trans-EP-COOEt it was 4.43 M⁻¹ s⁻¹; in the series on Cbz-APhe-trans-EP-COOEt it was 1.8 M⁻¹ s⁻¹; in [22] it was “NI”. The kobs/[I] was 6 M⁻¹ s⁻¹ in series [23]; “NI” in series [24]; 1.09 M⁻¹ s⁻¹ in series [25]; 1.27 M⁻¹ s⁻¹ in series [26]; 2.53 M⁻¹ s⁻¹ in series [27]; “NI” in series [28]. The “kobs/[I]” value is “NI” in series [29]; “NI” in [30]; “NI” in [4]; “NI” in [5]; 0.67 M⁻¹ s⁻¹ in series [6]; “NI” in [8]. The “kobs/[I]” value is “NI” in series [9]; 1.8 M⁻¹ s⁻¹ in series [10]; 6.27 M⁻¹ s⁻¹ in series [11]; 23.3 M⁻¹ s⁻¹ in series [12]; “NI” in series [31]; “NI” in series [32]. Moreover, the “kobs/[I]” value is “NI” in series [13]; 0.98 M⁻¹ s⁻¹ in series [14]; 7.02 M⁻¹ s⁻¹ in series [15]; “NI” in series [16]; “NI” in series [33]; 4.73 M⁻¹ s⁻¹ in series [34]. For the same substance, the kobs/[I] in series [35] is 1.3 M⁻¹ s⁻¹; in [36], “NI”; in series [37] it was 3.61 M⁻¹ s⁻¹; in [38] it was “NI”; in series [39], “NI”; in [40], 0.81 M⁻¹ s⁻¹. In addition, the results for the “kobs/[I]” value in [41], in [42] and in [43] were “NI”, < 10 M⁻¹ s⁻¹ and 0.8 M⁻¹ s⁻¹, respectively.

chymotrypsin: the “kobs/[I]” value in series [22], in series [23], in series [24], in series [26], in series [28] and in series [29] was “NI” in each case. The “kobs/[I]” value in series [31], in series [32], in [41] and in series [42] was “NI” each time.

In the case of dipeptidyl peptidase I, the kobs/[I] amounted to 0.7 M⁻¹ s⁻¹ in series [19]; 0.5 M⁻¹ s⁻¹ in series [21]; 8.2 M⁻¹ s⁻¹ in series [44]; 0.1 M⁻¹ s⁻¹ in [45]; 3.2 M⁻¹ s⁻¹ in series [46].
